Like-named read-outs stand apart in the source and are kept apart here.
Columns and labels:
healthy evaluators [1] = conditions: 1% sucrose solution used as minimum concentration at which sweetness is felt; cited from earlier work
[2] = cited from earlier work; for sweetness relative to sucrose of the same weight: calculated by weight, prior art; for sweetness delay: prior art CN 102498126 A
healthy evaluators [3] = assay: Determination of sweetness threshold by human sensory evaluation; format: in vivo; conditions: for Sweetness fold relative to 1% sucrose: =10000/(sample sweetness threshold); for Concentration (μg/mL) corresponding to threshold: sweetness threshold, protein diluted with mineral water (pH 6.9), averaged for 10 individuals
Procedure: Since the recombinant Brazzein of the present disclosure is not a sugar-based compound, it is impossible to measure the sweetness by using a saccharometer. Therefore, the sweetness threshold is measured using human sensory evaluation. For most people, the sweetness threshold for sugar in soft drinks is 0.32%-1.0%. To assess the sweetness threshold for each solution, an 1% sucrose solution is used as the solution with minimum concentration at which sweetness is felt, i.e., the sweetness threshold is 10000 μg/mL The sweetness potency of the Brazzein described herein relative to sucrose is generally in a range of 1:500 to 1:16,000. The samples tested included naturally extracted Brazzein (homemade, about 95% pure), recombinant Brazzein and mutants thereof, sucrose and mineral water. The protein was diluted in a gradient from 0.5 to 20 μg/ml by diluting the dry protein powder with mineral water (pH 6.9). Ten healthy evaluators (five males and five females) aged between 30 and 50 participated in the assessment, five of whom were trained wine tasters. Tasting started at the lowest concentration, with concentration increased by 1 μg/ml each time until sweetness was felt; then based on this concentration, the concentration was reduced by 0.1 μg/ml at a time until sweetness was not felt; and the sweetness threshold of the sample was determined by gradually decreasing the concentration gradient in such a way. 20 ml of samples were tested randomly compared to sugar solutions. Before each analysis, the evaluator was asked to rinse his/her mouth with water and eat the neutral crackers until there was no residual taste. The test solution was held in oral cavity for at least 10 seconds. Thereafter, evaluators provided scores against samples on the basis of their responses between 0 and 10; 0—no sweet feeling, 10—highly sweet. The final results for each protein were averaged for 10 individuals. The sweetness factor of Brazzein and mutants thereof relative to 1% sucrose=10000/(sample sweetness threshold).

[4] = aqueous solution, 80° C. for 4 hours; cited from earlier work

Row | Molecule | Sweetness fold relative to 1% sucrose (healthy evaluators [3]) | Concentration (μg/mL) corresponding to threshold (healthy evaluators [3]) | other results
1 | OC[C@H]1O[C@@](CO)(O[C@H]2O[C@H](CO)[C@@H](O)[C@H](O)[C@H]2O)[C@@H](O)[C@@H]1O [sucrose] | – | – | sweetness threshold of sucrose (reference) (healthy evaluators [1]): 10000 µg/mL
2 | Brazzein | – | – | sweetness relative to sucrose of the same weight ([2]; listed as Brazzein expressed in an Aspergillus oryzae host in patent CN102498126A): 510 times; sweetness relative to sucrose of the same weight ([2]; listed as expressed Brazzein): about 510 times; sweetness delay [2]: about 1.5 seconds; sweetness delay ([2]; listed as expressed Brazzein): obvious sweetness delay
3 | Brazzein (QDKCKKVYENYPVSKCQLANQCNYDCKLDKHARSGECFYDEKRNLQCICDYCEY; UniProt P56552 1-54, looked up) [Naturally extracted Brazzein, naturally extracted Brazzein (homemade, about 95% pure), reference compound] | 501 fold | 20 ± 3.9 µg/mL | –
4 | Brazzein [Brazzein expressed by Pichia pastoris] | – | – | sweetness relative to sucrose of the same weight [2]: 40 times
5 | Brazzein [Brazzein] (DKCKKVYENYPVSKCQLANQCNYDCKLDKHARSGECFYDEKRNLQCICDYCEY; listed as Pentadiplandra brazzeana) [sweet protein extracted from fruits of Pentadiplandra brazzeana (Baillon), 54 amino acids, 6.5 kDa] | – | – | sweetness after heat treatment [4]: remains sweet
6 | ROLpro-BXT-D1: BXT-D1 expressed fused to leader peptide ROLpro, SEQ ID NO: 21; leader removed by cleavage (protein, ROLpro leader removed by cleavage) DDNLVGGMTLDLPSDAPPISLSSSTNSAVALEKRDKCKKVYENYPVSKCQLANQCNYDCKLDKHARSGDCFYDAKRNLQCICDYCEY | 6666.7 fold | 1.5 ± 0.3 µg/mL | –
7 | ROLpro-BXT-D6: BXT-D6 expressed fused to leader peptide ROLpro, SEQ ID NO: 31; leader removed by cleavage (protein, ROLpro leader removed by cleavage) DDNLVGGMTLDLPSDAPPISLSSSTNSAVALEKRDKCKKVYENYPVSKCQLANQCNYDCKLDKRARSGDCFYDKKRNLQCICDYCEY | 16666.7 fold | 0.6 ± 0.1 µg/mL | –
8 | ROLpro-BXT-D7: BXT-D7 expressed fused to leader peptide ROLpro, SEQ ID NO: 33; leader removed by cleavage (protein, ROLpro leader removed by cleavage) DDNLVGGMTLDLPSDAPPISLSSSTNSAVALEKRDKCKKVYENYPVSKCQLANQCNYDCKLDKRARSGDCFYDRKRNLQCICDYCEY | 16666.7 fold | 0.6 ± 0.1 µg/mL | –
9 | ROLpro-BXT-D4: BXT-D4 expressed fused to leader peptide ROLpro, SEQ ID NO: 27; leader removed by cleavage (protein, ROLpro leader removed by cleavage) DDNLVGGMTLDLPSDAPPISLSSSTNSAVALEKRDKCKKVYENYPVSKCQLANQCNYDCKLDKHARSGDCFYDRKRNLQCICDYCEY | 8333.3 fold | 1.2 ± 0.2 µg/mL | –
10 | ROLpro-BXT: Brazzein BXT expressed fused to Rhizopus oryzae lipase leader peptide ROLpro with kex2 site, SEQ ID NO: 19; leader removed by cleavage (protein, ROLpro leader removed by kex2 cleavage) DDNLVGGMTLDLPSDAPPISLSSSTNSAVALEKRDKCKKVYENYPVSKCQLANQCNYDCKLDKHARSGECFYDEKRNLQCICDYCEY | 613.5 fold | 16.3 ± 2.9 µg/mL | –
11 | ROLpro-BXT-D2: BXT-D2 expressed fused to leader peptide ROLpro, SEQ ID NO: 23; leader removed by cleavage (protein, ROLpro leader removed by cleavage) DDNLVGGMTLDLPSDAPPISLSSSTNSAVALEKRDKCKKVYENYPVSKCQLANQCNYDCKLDKHARSGDCFYDDKRNLQCICDYCEY | 3703.7 fold | 2.7 ± 0.5 µg/mL | –
12 | ROLpro-BXT-D5: BXT-D5 expressed fused to leader peptide ROLpro, SEQ ID NO: 29; leader removed by cleavage (protein, ROLpro leader removed by cleavage) DDNLVGGMTLDLPSDAPPISLSSSTNSAVALEKRDKCKKVYENYPVSKCQLANQCNYDCKLDKRARSGDCFYDAKRNLQCICDYCEY | 8333.3 fold | 1.2 ± 0.2 µg/mL | –
13 | ROLpro-BXT-D3: BXT-D3 expressed fused to leader peptide ROLpro, SEQ ID NO: 25; leader removed by cleavage (protein, ROLpro leader removed by cleavage) DDNLVGGMTLDLPSDAPPISLSSSTNSAVALEKRDKCKKVYENYPVSKCQLANQCNYDCKLDKHARSGDCFYDKKRNLQCICDYCEY | 6250 fold | 1.6 ± 0.3 µg/mL | –
